According to article PMC8506970:

Target: His-mATGL288-Str (expression product of pST44-HIS-SMT3-TEV-mATGL288-STR) (mouse) (UniProt Q8BJ56)
Sequence (Q8BJ56 1-288): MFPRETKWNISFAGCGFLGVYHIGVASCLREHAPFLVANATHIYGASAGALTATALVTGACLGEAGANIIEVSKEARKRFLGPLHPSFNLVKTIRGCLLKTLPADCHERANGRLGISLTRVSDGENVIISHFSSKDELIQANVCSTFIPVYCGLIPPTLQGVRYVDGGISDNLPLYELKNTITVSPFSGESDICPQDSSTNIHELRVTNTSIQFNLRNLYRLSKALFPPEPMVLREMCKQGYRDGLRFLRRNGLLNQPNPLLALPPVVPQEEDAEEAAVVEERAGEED

Chain of CGI-58 (expression product of pST44-SMT3-TEV-mCGI58-HIS) (Q9DBL9 whole entry): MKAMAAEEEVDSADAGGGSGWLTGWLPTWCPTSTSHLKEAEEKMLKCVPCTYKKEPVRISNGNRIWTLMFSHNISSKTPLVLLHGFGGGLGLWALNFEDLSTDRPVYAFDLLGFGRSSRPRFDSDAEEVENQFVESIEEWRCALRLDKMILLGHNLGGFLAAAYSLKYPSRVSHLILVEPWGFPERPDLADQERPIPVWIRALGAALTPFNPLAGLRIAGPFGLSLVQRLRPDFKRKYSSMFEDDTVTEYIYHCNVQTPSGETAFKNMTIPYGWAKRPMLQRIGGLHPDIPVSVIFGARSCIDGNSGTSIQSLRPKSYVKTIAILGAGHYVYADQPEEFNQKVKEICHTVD

Substance “CGI-58 (expression product of pST44-SMT3-TEV-mCGI58-HIS) (from UniProt Q9DBL9 1-351) (natural protein)” has a TAG hydrolase activity of His-mATGL288-Str coactivated by CGI-58 after storage at 4 °C, against fresh protein of 50 % loss, a TAG hydrolase activity of His-mATGL288-Str coactivated by CGI-58 within 10 days of storage at -80 °C (snap frozen, 10% glycerol), against fresh protein of 50 % loss and a TAG hydrolase activity of freshly purified His-mATGL288-Str, CGI-58-stimulated against basal (equimolar mCGI-58) of 10 fold. The TAG hydrolase activity upon CGI-58 coactivation of His-mATGL288-Str frozen in sucrose buffer at -80 °C, alone or as complex with CGI-58, against fresh protein was 40 % loss.
